Source: patent publication EP1198239B1 (Cancer Research Ventures Limited, dated 2007)

T1: Kid (Escherichia coli plasmid R1, UniProt P13976 24-133)
T1 construct: expressed from p424Met25Kid in yeast and from pNATHA2 in HeLa cells; also called ParD kid toxin; killing determinant
T1 sequence (looked up): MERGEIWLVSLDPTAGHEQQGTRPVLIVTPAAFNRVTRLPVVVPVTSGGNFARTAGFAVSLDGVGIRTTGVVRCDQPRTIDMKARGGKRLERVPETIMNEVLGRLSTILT

B1: HisKis (other, Escherichia coli plasmid R1, UniProt P13975 1-85, looked up)
chain: MHTTRLKRVGGSVMLTVPPALLNALSLGTDNEVGMVIDNGRLIVEPYRRPQYSLAELLAQCDPNAEISAEEREWLDAPATGQEEI
notes: Co-expressed with Kid from pRG-HisKisKid in E. coli C600 or TG1; also called His-tagged Kis; ParD kis antitoxin with N-terminal His tag; not shown: N-terminal His tag and linker from vector pET15b, subcloned into pRG-recA-NHis

Columns and labels:
[1] = molecular target: Kid (Escherichia coli plasmid R1) (UniProt P13976); experiment: cell-based or functional assay
[2] = molecular target: T1, Kid; experiment: co-retention of untagged Kid with HisKis on Ni2+-activated chelating sepharose; Kid released only by denaturation (eluted at 5.5 M guanidinium chloride)

Molecule	dead cells (trypan blue), all other samples (incl. kis+/kid+ HeLa cells without Doxycyclin, Kis expressed) [1] [%]	dead cells (trypan blue), kis+/kid+ HeLa cells in presence of Doxycyclin, day five [1] [%]	dead cells (trypan blue), kis+/kid+ HeLa cells in presence of Doxycyclin, day ten [1] [%]	binding result [2]
Kis (from UniProt P13975 1-85)	< 9	32	65	
B1				binds
